Measurements as given in patent publication US20090068174A1, “THERAPEUTIC ALKALINE PROTEASE COMPOSITIONS AND USE IN FACILITATING THE TRANSPORT OF AGENTS ACROSS THE GASTROINTESTINAL MUCOSAL LINING” (Kansas University Medical Center Research Institute, Inc., priority 2007, published 2009).

Tests used:
mouse recombinant TNF-α = biological target: T1, mouse recombinant TNF-α (Mus musculus, UniProt P06804); assay: Cleavage of mouse TNF-α (Western blotting); type: biochemical; details: 100 ng cytokine, 37° C. overnight, Western blot
T1 sequence (P06804 80-235 limits assumed): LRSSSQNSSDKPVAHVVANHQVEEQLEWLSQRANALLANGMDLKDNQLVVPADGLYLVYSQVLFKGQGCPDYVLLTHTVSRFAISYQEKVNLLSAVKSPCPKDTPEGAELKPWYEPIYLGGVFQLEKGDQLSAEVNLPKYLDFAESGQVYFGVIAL
Description: Degradation of mouse recombinant TNF-α: (A) or IFN-γ (B) following treatment with: the protease powder prepared according to Example 1 (preparation), purified alkaline protease (AP); Pseudomonas elastase (E); and buffered-treated control (C). The cytokines (100 ng each) were incubated at 37° C. overnight with the indicated quantities (ng) of enzymes, and then analyzed by Western blotting for evidence of degradation. A scan of AP-treated mouse TNF-α (left-hand Western blot) showing the decreasing density of the top band as a function of alkaline protease concentration (C).
Because the anti-TNF-α used here was specific for an epitope located in the carboxyl terminus of the cytokine, the pattern of cleavage is most consistent with attack at the amino terminus of TNF-α (e.g., there is a loss of molecular mass without a loss of the epitope recognized by the antibody).

TNF-α = biological target: T2, TNF-α (Mus musculus, UniProt P06804); assay: Protease-treated TNF-α injected i.p. into mice, activated caspase-3 in intestine; type: in vivo; details: TNF-α treated with protease for 2 h, intestine 1 h later
T2 sequence (P06804 80-235 limits assumed): T1 sequence (P06804 80-235 limits assumed)
Description: TNF-α was first treated either with PBS, AP or D for 2 h, the reaction mixtures were inactivated by the addition of FBS, and the cytokine-protease mixtures were injected i.p. into mice. (A) One hour later the mice were euthanized, samples of their intestines were collected and fixed, and tissue sections were analyzed by immunohistology for the expression of activated caspase-3. These are the results are shown in which data are expressed in two forms: (B) the frequency distributions of sections expressing different levels of activated caspase-3; and (C) the percentages of tissue sections in which 10% or more of the villi stained for activated caspase-3.
A series of experiments was performed in which the activation of caspase-3 within the intestine was measured. […] One hour later the mice were euthanized, samples of their intestines were collected and fixed, and tissue sections were analyzed by immunohistology for the expression of activated caspase-3 (FIG. 21-22). […]
Mice were injected i.p. with 5 ng of recombinant mouse TNF-α or protease-treated TNF-α, and 2 cm segments of their duodenums were collected 1 h later. […] The sections were first treated with rabbit antibody to activated (cleaved) mouse caspase-3, and bound antibody was detected using a Histostain-SP kit. […] At least 48 sections were analyzed in this fashion from each mouse.

established IBD = assay: Established IBD in the hapten model in SJL mice; type: in vivo, mouse
Description: SJL mice can be given TNBS by enema for the induction of colitis, and their body weights can be monitored every 3 days. When there has been a decrease in body mass by at least 15% (typically day 7), the animals can be given either four i.p. injections of 10 μg alkaline protease every 12 hours (Group 1) or administered alkaline protease in their drinking water at a concentration found above to decrease IBD parameters (Group 2). A control group can be challenged with TNBS, but would not receive protease (Group 3). Body weights can then be monitored daily, and at the end of one week, mice are euthanized and tissues taken for scoring the various histopathological and immunohistochemical parameters as known in the art.

spontaneous colitis = assay: Spontaneous colitis in C3H/HeJBir mice; type: in vivo, mouse; details: weeks 6-10 of life
From the text: This particular mouse strain develops a transmural Th1-, cytokine-dependent colitis similar to CD that begins at 3-6 wk of life and gradually wanes until it resolves at 3 months of age. T cells and Th1 cytokines (IL-112, IFN-γ and TNF-α) mediate the disease which is maintained by an ongoing reaction to microbial flora antigens.
C3H/HeJBir mice can be obtained at 5-6 wk of age from Jackson Labs. Mice can be divided into three groups, for example: Group 1 should receive no further treatment and may simply be monitored for clinical signs, including daily measurements of body weight and endpoint pathology. Group 2 should be administered alkaline protease in their drinking water at a dose of 10-25 mg/kg/week for one week. Group 3 should be administered alkaline protease in their drinking water (dose determined above) for two weeks. After 1 week (Group 2 and half of Group 1) or 2 weeks (Group 3 and half of Group 1), animals can be sacrificed and body weight changes and histopathological scores of inflammation and tissue damage (leukocyte infiltration, ulceration, abscesses and fibrosis), activated caspase-3 expression and TNF-α expression can be measured by methods known in the art.

[1] = Protease stability and solubility in water; type: physicochemical
Description: For determining the stability of the alkaline protease in drinking water over 0-4 days, proteases can be dissolved in autoclaved tap water at a concentration of 1 mg/ml and stored at either 25° C. or 4° C. At regular intervals (every 3 hours at 0-18 hours, every 8 hours at 18-24 hours, and every 12 hours at 24-96 hours), aliquots can be ascetically removed and tested for their ability to cleave protamine sulfate using a modification of the ninhydrin assay of Rosen. Results are expressed as % residual activity measured immediately after preparation of the protease solutions.

B1: Alkaline Protease: Aspergillus oryzae alkaline protease (oryzin), SEQ ID NO: 2, purified from the protease powder of Example 1 (protein, listed as Aspergillus oryzae)
chain: MQSIKRTLLLLGAILPAVLGAPVQETRRAAEKLPGKYIVTFKPGIDEAKIQEHTTWATNIHQRSLERRGATGGDLPVGIERNYKINKFAAYAGSFDDATIEEIRKNEDVAYVEEDQIYYLDGLTTQKSAPWGLGSISHKGQQSTDYIYDTSAGEGTYAYVVDSGVNVDHEEFEGRASKAYNAAGGQHVDSIGHGTHVSGTIAGKTYGIAKKASILSVKVFQGESSSTSVILDGFNWAANDIVSKKRTSKAAINMSLGGGYSKAFNDAVENAFEQGVLSVVAAGNENSDAGQTSPASAPDAITVAAIQKSNNRASFSNFGKVVDVFAPGQDILSAWIGSSSATNTISGTSMATPHIVGLSLYLAALENLDGPAAVTKRIKELATKDWKDVKGSPNLLAYNGNA
Cleavage of mouse TNF-α (mouse recombinant TNF-α): evidenced the same substrate specificity
Ability of protease-treated TNF-α to activate caspase-3 in intestinal epithelial cells (TNF-α): destroyed the ability of the cytokine to activate caspase-3
Effect on established IBD (established IBD): can reverse and/or lessen established IBD
Weight loss and pathological lesions (spontaneous colitis): can correct the weight loss and the pathological lesions
Solubility in water [1]: soluble in water
Stability of catalytic activity on storage ([1]; 4° C. storage): stable with 4 °C storage for several weeks
Retention of activity in water ([1]; for 2 days): > 80%
